Test results published in PMC10066265, “Inhibitor-3 inhibits Protein Phosphatase 1 via a metal binding dynamic protein–protein interaction” (Nature Communications, 2023).
“And” between values parts separate entries of the source, which are not always exact repeats. Equal values may be shown once. Read-outs that look alike come from different tables or passages of the source.

Experiments:
[1] = molecular target: T1, PP1_7-330 (Homo sapiens, UniProt P62136)
T1 construct: gene PPP1CA; His6-PP1α7-330, E. coli expressed, Mn2+ loaded
T1 sequence (P62136 7-330): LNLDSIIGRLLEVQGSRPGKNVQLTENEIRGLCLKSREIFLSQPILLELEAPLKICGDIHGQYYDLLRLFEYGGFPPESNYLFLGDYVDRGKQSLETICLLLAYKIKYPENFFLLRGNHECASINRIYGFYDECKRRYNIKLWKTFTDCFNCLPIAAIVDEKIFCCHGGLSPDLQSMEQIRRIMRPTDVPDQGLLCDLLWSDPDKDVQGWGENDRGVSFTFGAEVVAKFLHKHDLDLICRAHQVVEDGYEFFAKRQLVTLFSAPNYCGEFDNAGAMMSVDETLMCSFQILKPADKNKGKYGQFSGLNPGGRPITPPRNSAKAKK
Experimental: SPR measurements were performed using a 4-channel Reichert 4SPR instrument fitted with autosampler and a degassing pump (Reichert Technologies). SPR buffers containing 20 mM Tris pH 8.0, 500 mM NaCl, 1 mM MnCl2, 0.5 mM TCEP, 0.05% Tween-20 were prepared, sterile filtered, and degassed in autoclaved glassware prior to each experiment. Running buffer was used to prime and run both the sample and syringe pump reservoirs. Gold sensorchips modified with Ni-NTA-functionalized polycarboxylate (NiH[…]; XanTec Bioanalytics GmbH) were installed and equilibrated under flow conditions (100 μL/min) for ≥60 min at 25 °C. Surface contaminants were cleared from the chip surface by a pair of 120 μL injections of 2 M NaCl and 10 mM NaOH during the equilibration step. […] The sensorchip was allowed to equilibrate for 5 min at 50 μL/min prior to initiation of experiments. The concentrations of I3_1-126 and its variants ([…] and […]3_79-91) were measured using AccuOrange^TM Protein Quantification Kit (Biotium). For measurements, I3_1-126 and its variants were diluted into running buffer from concentrated stocks, and a series of injections at different I3 concentrations were applied. […] For all experiments, buffer blank injections were included at an interval of two sample injections to achieve double referencing. Technical replicates were obtained by utilizing three channels per chip coupled with stripping of the sensorchip with 350 mM EDTA pH 8.0, reconditioning the surface with 10 mM NaOH to remove non-specifically bound PP1 aggregates, charging the surface with 10 mM NiSO4, and reloading fresh PP1 onto the surface. All replicates were generated with freshly diluted PP1 and I3. Kinetic parameters were determined by curve-fitting using TraceDrawer software (Ridgeview Instruments AB) fit with a one-to-one one state or one-to-one two state model. Statistical analyses of SPR data were performed using Microsoft Excel.

[2] = molecular target: T1, PP1_7-330; details: SD, n = 3
[3] = molecular target: T2, His6-PP1α_(7-330) (UniProt P62136 7-330); test: SPR; His6-PP1 captured on a Ni-NTA sensorchip (NiHC200M), I3 variants injected; 25 °C; 20 mM Tris pH 8.0, 500 mM NaCl, 1 mM MnCl2, 0.5 mM TCEP, 0.05% Tween-20; one-to-one one state or one-to-one two state model; details: both partners purified
T2 construct: Protein Phosphatase 1 alpha (PP1α), residues 7-330; Captured by its His6 tag on the Ni-NTA chip for SPR; Two Mn2+ at the active site when made in E. coli with MnCl2; also called PP1_(7-330); Protein Phosphatase 1; source: bacterial expression (E. coli) as previously described, purified (Ni-NTA, SEC)
T2 sequence (P62136 7-330): as above

[4] = molecular target: T3, PP1α_(7-330) (UniProt P62136 7-330); test: SPR; His6-PP1 captured on Ni-NTA chip (NiHC200M), I3 variants injected; 25 °C; 20 mM Tris pH 8.0, 500 mM NaCl, 1 mM MnCl2, 0.5 mM TCEP, 0.05% Tween-20; one-to-one one state or one-to-one two state model (TraceDrawer); details: both partners purified
T3 construct: Protein Phosphatase 1 alpha (PP1α), residues 7-330; His6-PP1 was captured on the Ni-NTA sensor chip as the SPR ligand; Mn2+ in all buffers; also called Protein Phosphatase 1; His6-PP1; source: E. coli, purified (Ni-NTA, SEC)
T3 sequence (P62136 7-330): as above

[5] = molecular target: T2, His6-PP1α_(7-330); test: cell-based or functional assay

With “I3 1-126 C60S/C61S/C62S [SSS: I3_1-126 C60S/C61S/C62S]” the Kd ([1]; n = 3) was 300 ± 23 nM.

“I3 1-126 T29A/I30A/K31A [SILKdead: I3_1-126 T29A/I30A/K31A]” was tested, and the Kd ([1]; n = 3) was 13.1 ± 2.8 nM.

“I3 1-126 with KVEW 40-43 mutated to KAEA [RVxFdead: I3_1-126 ^40KAEA^43]” gave a Kd ([1]; n = 4) of 3460 ± 531 nM.

For “human Inhibitor-3 (PPP1R11) full length, residues 1-126 [I3_1-126]”, the Kd ([1]; n = 3) was 15.7 ± 2 nM and the IC50 [2] was 71 ± 6 nM.

B1: SILK_(deletion): I3_(38-68) (Δ27-37) (domain or fragment, human, UniProt O60927 38-68, looked up)
chain: EKKVEWTSDTVDNEHMGRRSSKCCCIYEKPR
notes: PPP1R11), human, residues 38-68; source: E. coli BL21 (DE3), purified (Ni-NTA, TEV, heat 95 °C, SEC); not shown: His6, N-terminal, cleaved; MBP, N-terminal, cleaved
Work on B1 yielded a Kd [3] of 15.2 ± 2.5 nM.

B2: SILK_(deletion): I3_(38-68) (Δ27-37) (domain or fragment, human, UniProt O60927 38-68, looked up)
chain: EKKVEWTSDTVDNEHMGRRSSKCCCIYEKPR
notes: PPP1R11), human, residues 38-68; also called SILKdead: I338-68 (Δ27-37); source: E. coli BL21 (DE3), purified (Ni-NTA, TEV cleavage, heat, SEC); not shown: His6, N-terminal, cleaved; MBP, N-terminal, cleaved
With B2 the Kd [4] was 14.8 nM and 17.9 nM and 13 nM.

B3: SILK_(dead): I3_(27-68) T29A/I30A/K31A (domain or fragment, human, UniProt O60927 27-68, looked up)
chain: SLAAALRKRKPEKKVEWTSDTVDNEHMGRRSSKCCCIYEKPR
notes: PPP1R11), human, residues 27-68; also called I3_(27-68) 29AAA31; source: E. coli BL21 (DE3), purified (Ni-NTA, TEV, heat 95 °C, SEC); not shown: His6, N-terminal, cleaved; MBP, N-terminal, cleaved
With B3 the Kd [3] was 16.8 ± 2.8 nM.

B4: SILK_(dead): I3_(27-68) T29A/I30A/K31A (domain or fragment, human, UniProt O60927 27-68, looked up)
chain: SLAAALRKRKPEKKVEWTSDTVDNEHMGRRSSKCCCIYEKPR
notes: PPP1R11), human, residues 27-68, T29A/I30A/K31A; also called I3_27-68_SLAAA; I3_(27-68) 29AAA31; source: E. coli BL21 (DE3), purified (Ni-NTA, TEV cleavage, heat, SEC); not shown: His6, N-terminal, cleaved; MBP, N-terminal, cleaved
For B4, the Kd [4] was 13.5 nM and 18.2 nM and 18.6 nM.

B5: Inhibitor-3 I3_(1-126) (full-length) (natural protein, human, UniProt O60927 1-126, looked up)
chain: MAEAGAGLSETVTETTVTVTTEPENRSLTIKLRKRKPEKKVEWTSDTVDNEHMGRRSSKCCCIYEKPRAFGESSTESDEEEEEGCGHTHCVRGHRKGRRRATLGPTPTTPPQPPDPSQPPPGPMQH
notes: PPP1R11), human, 126 aa, residues 1-126; Uniformly 15N-labelled in the NMR experiment, unlabelled in SPR; also called PPP1R11; YPI1; source: E. coli BL21 (DE3), purified (Ni-NTA, TEV, heat 95 °C, SEC); not shown: His6, N-terminal, cleaved; MBP, N-terminal, cleaved
In the case of B5, the “IC50 of PP1 inhibition (dephosphorylation of the H3pT3 peptide, released Pi)” value [5] is reported as 71 nM and the Kd [3] is reported as 15.7 ± 2 nM.

B6: I3_(1-126) (FL, full-length) (natural protein, human, UniProt O60927 1-126, looked up)
chain: MAEAGAGLSETVTETTVTVTTEPENRSLTIKLRKRKPEKKVEWTSDTVDNEHMGRRSSKCCCIYEKPRAFGESSTESDEEEEEGCGHTHCVRGHRKGRRRATLGPTPTTPPQPPDPSQPPPGPMQH
notes: PPP1R11), human, 126 aa, residues 1-126; also called PPP1R11; source: E. coli BL21 (DE3), purified (Ni-NTA, TEV cleavage, heat, SEC); not shown: His6, N-terminal, cleaved; MBP, N-terminal, cleaved
B6 was tested, and the Kd [4] was 17.7 nM and 13.7 nM and 15.6 nM.

B7: RVxF_(dead): I3_(1-126) 40KAEA43 (natural protein, human, UniProt O60927 1-126, looked up)
chain: MAEAGAGLSETVTETTVTVTTEPENRSLTIKLRKRKPEKKAEATSDTVDNEHMGRRSSKCCCIYEKPRAFGESSTESDEEEEEGCGHTHCVRGHRKGRRRATLGPTPTTPPQPPDPSQPPPGPMQH
notes: PPP1R11), human, residues 1-126, 40KVEW43 mutated to 40KAEA43; also called I3_1-126_KAEA; I3_(RAXA); source: E. coli BL21 (DE3), purified (Ni-NTA, TEV cleavage, heat, SEC); not shown: His6, N-terminal, cleaved; MBP, N-terminal, cleaved
B7 was tested, and the Kd [4] was 3390 nM and 3260 nM and 2970 nM and 4210 nM.

B8: SSS: I3_(1-126) C60S/C61S/C62S (natural protein, human, UniProt O60927 1-126, looked up)
chain: MAEAGAGLSETVTETTVTVTTEPENRSLTIKLRKRKPEKKVEWTSDTVDNEHMGRRSSKSSSIYEKPRAFGESSTESDEEEEEGCGHTHCVRGHRKGRRRATLGPTPTTPPQPPDPSQPPPGPMQH
notes: PPP1R11), human, residues 1-126, C60S/C61S/C62S; also called I3_1-126_SSS; I3_(1-126)SSS; source: E. coli BL21 (DE3), purified (Ni-NTA, TEV cleavage, heat, SEC); not shown: His6, N-terminal, cleaved; MBP, N-terminal, cleaved
For B8, the Kd [4] was 295 nM and 330 nM and 287 nM and 304 nM, the koff [4] was 0.0957 s⁻¹ and 0.103 s⁻¹ and 0.093 s⁻¹ and 0.0972 s⁻¹ and the kon [4] was 325000 M⁻¹ s⁻¹ and 313000 M⁻¹ s⁻¹ and 321000 M⁻¹ s⁻¹.

B9: SSS: I3_(1-126) C60S/C61S/C62S (natural protein, human, UniProt O60927 1-126, looked up)
chain: MAEAGAGLSETVTETTVTVTTEPENRSLTIKLRKRKPEKKVEWTSDTVDNEHMGRRSSKSSSIYEKPRAFGESSTESDEEEEEGCGHTHCVRGHRKGRRRATLGPTPTTPPQPPDPSQPPPGPMQH
notes: PPP1R11), human, residues 1-126; also called I3_(1-126)SSS; source: E. coli BL21 (DE3), purified (Ni-NTA, TEV, heat 95 °C, SEC); not shown: His6, N-terminal, cleaved; MBP, N-terminal, cleaved
B9 was tested, and the Kd [3] was 300 ± 23 nM.

B10: RVxF_(dead): I3_(1-126) 40KAEA43 (natural protein, human, UniProt O60927 1-126, looked up)
chain: MAEAGAGLSETVTETTVTVTTEPENRSLTIKLRKRKPEKKAEATSDTVDNEHMGRRSSKCCCIYEKPRAFGESSTESDEEEEEGCGHTHCVRGHRKGRRRATLGPTPTTPPQPPDPSQPPPGPMQH
notes: PPP1R11), human, residues 1-126; Uniformly 15N-labelled in the NMR experiment, unlabelled in SPR; also called I3_(RAXA) variant; I3 RVxF_(dead); source: E. coli BL21 (DE3), purified (Ni-NTA, TEV, heat 95 °C, SEC); not shown: His6, N-terminal, cleaved; MBP, N-terminal, cleaved
With B10 the Kd [3] was 3460 ± 531 nM.

B11: SILK_(dead): I3_(1-126) T29A/I30A/K31A (natural protein, human, UniProt O60927 1-126, looked up)
chain: MAEAGAGLSETVTETTVTVTTEPENRSLAAALRKRKPEKKVEWTSDTVDNEHMGRRSSKCCCIYEKPRAFGESSTESDEEEEEGCGHTHCVRGHRKGRRRATLGPTPTTPPQPPDPSQPPPGPMQH
notes: PPP1R11), human, residues 1-126; also called I3_(1-126) 29AAA31; source: E. coli BL21 (DE3), purified (Ni-NTA, TEV, heat 95 °C, SEC); not shown: His6, N-terminal, cleaved; MBP, N-terminal, cleaved
Molecule B11 has a Kd [3] of 13.1 ± 2.8 nM.

B12: SILK_(dead): I3_(1-126) T29A/I30A/K31A (natural protein, human, UniProt O60927 1-126, looked up)
chain: MAEAGAGLSETVTETTVTVTTEPENRSLAAALRKRKPEKKVEWTSDTVDNEHMGRRSSKCCCIYEKPRAFGESSTESDEEEEEGCGHTHCVRGHRKGRRRATLGPTPTTPPQPPDPSQPPPGPMQH
notes: PPP1R11), human, residues 1-126, T29A/I30A/K31A; also called I3_1-126_SLAAA; I3_(1-126) 29AAA31; source: E. coli BL21 (DE3), purified (Ni-NTA, TEV cleavage, heat, SEC); not shown: His6, N-terminal, cleaved; MBP, N-terminal, cleaved
In the case of B12, the Kd [4] is reported as 16.3 nM and 11.9 nM and 11.2 nM.
